Data as given in the Human Domainome abundance scans (Beltran et al. 2025).

B1: Cold shock protein CspB, residues 1 to 66; numbered along this chain, P41016 (parent)
chain: MQRGKVKWFNNEKGYGFIEVEGGSDVFVHFTAIQGEGFKTLEEGQEVSFEIVQGNRGPQAANVVKL

Variants of: B1
Assay: abundance fitness (aPCA) (normalised: wild type 0, dead -1); higher = more abundant; growth selection in yeast, the domain comes from the species named
Conditions: Bacillus caldolyticus

Abundance fitness: each site, then its substitutions
K7: F -0.3
G22: W -0.019 | S 0.011 | T 0.025 | R -0.011 | C 0.02 | E -0.013 | V -0.02 | Q -0.035 | L -0.012 | I -0.027 | F -0.016 | M -0.01 | Y -0.063
E12: D -0.021 | N 0.042 | C -0.004 | M 0.004 | P 0.036 | Q 0.017 | F 0.006 | A 0.036 | Y 0.016 | I -0.198 | H 0.009 | S 0.022 | V -0.064 | R 0.049 | K 0.077 | G -0.02 | W 0.005 | L 0.017 | T 0.034
F17: M -0.139 | D -0.558 | G -0.236 | W -0.084 | C -0.18 | Q -0.161 | H -0.151 | E -0.172 | Y -0.192 | I -0.128 | P -0.977 | L -0.171 | A -0.159 | R -0.132 | N -0.171 | V -0.165 | S -0.171 | T -0.126 | K -0.138
Y15: N -0.256 | L -0.117 | P -0.885 | W 0.023 | D -0.332 | C -0.186 | V -0.155 | F -0.047 | K -0.189 | R -0.227 | M -0.138 | E -0.188 | A -0.233 | Q -0.19 | G -0.285 | H -0.089 | S -0.22
G23: K 0.052 | N -0.066 | C 0.029 | L -0.003 | M 0 | H -0.053 | Y -0.061 | A 0.03 | F -0.034 | I -0.041 | T 0.003 | S 0.011 | D 0.026 | Q 0.012 | P -0.011 | R 0.028 | W -0.057 | V -0.021
V20: A -0.003 | K 0.055 | T 0.008 | P 0.018 | W 0.056 | D -0.054 | Q 0.046 | H 0.094 | R -0.006 | S -0.011 | I -0.014 | M -0.018 | E -0.002 | N -0.028 | F -0.092 | Y -0.001 | L 0
F9: K -0.389 | W -0.092 | P -0.956 | M -0.233 | E -0.827 | I -0.272 | R -0.583 | H -0.567 | T -0.306 | N -0.854 | S -0.408 | G -0.939 | A -0.303 | C -0.35 | Y -0.119 | V -0.239 | Q -0.854 | D -0.881
N11: I -0.065 | Q -0.138 | D 0.028 | M -0.042 | L -0.003 | E -0.027 | G -0.071 | F -0.052 | H -0.027 | Y -0.111 | T -0.025 | R -0.017 | C -0.051 | S -0.033 | K -0.047 | A -0.052
E21: T 0.014 | W -0.033 | G 0.02 | K -0.017 | H 0.027 | Q -0.007 | M -0.051 | I 0.034 | F -0.052 | V 0.013 | Y -0.022 | D -0.028 | A 0.017 | S -0.009
I18: P -1.19 | F -0.297 | N -0.85 | W -0.973 | C -0.164 | T -0.721 | G -1.07 | M -0.208 | H -0.812 | K -0.926 | Y -1.07 | Q -1.12 | A -0.272 | L 0.015 | D -1.08
